Data taken from patent US20140005119A1, “COMPOSITIONS AND METHODS FOR INHIBITING THE ACTIVITY OF P110a MUTANT PROTEINS” (Case Western Reserve University, priority 2012, published 2014).
Bridges are numbered along the chain shown (N, C = ends). Where no end group is shown, it is not given here. [ ]: non-standard residue; d: D form. S5 = C=CCCC[C@](C)(N)C(=O)O

Legend:
[1] = biological target: T1, interaction between p110α E545K and IRS1 (Homo sapiens, UniProt P35568); test: Peptide competition assay in cell lysates (anti-FLAG immunoprecipitation, anti-IRS1 blot); format: binding; conditions: peptide added into cell lysates of p110α E545K 3×FLAG KI cells
T1 construct: In KI DLD1 cells, IRS1 was co-immunoprecipitated with p110α E545K but not the WT p110α; endogenous in cells; host or cells: DLD1 p110α E545K 3×FLAG knock-in cells (rAAV gene targeting of the endogenous allele)
T1 sequence (P35568 1-1242): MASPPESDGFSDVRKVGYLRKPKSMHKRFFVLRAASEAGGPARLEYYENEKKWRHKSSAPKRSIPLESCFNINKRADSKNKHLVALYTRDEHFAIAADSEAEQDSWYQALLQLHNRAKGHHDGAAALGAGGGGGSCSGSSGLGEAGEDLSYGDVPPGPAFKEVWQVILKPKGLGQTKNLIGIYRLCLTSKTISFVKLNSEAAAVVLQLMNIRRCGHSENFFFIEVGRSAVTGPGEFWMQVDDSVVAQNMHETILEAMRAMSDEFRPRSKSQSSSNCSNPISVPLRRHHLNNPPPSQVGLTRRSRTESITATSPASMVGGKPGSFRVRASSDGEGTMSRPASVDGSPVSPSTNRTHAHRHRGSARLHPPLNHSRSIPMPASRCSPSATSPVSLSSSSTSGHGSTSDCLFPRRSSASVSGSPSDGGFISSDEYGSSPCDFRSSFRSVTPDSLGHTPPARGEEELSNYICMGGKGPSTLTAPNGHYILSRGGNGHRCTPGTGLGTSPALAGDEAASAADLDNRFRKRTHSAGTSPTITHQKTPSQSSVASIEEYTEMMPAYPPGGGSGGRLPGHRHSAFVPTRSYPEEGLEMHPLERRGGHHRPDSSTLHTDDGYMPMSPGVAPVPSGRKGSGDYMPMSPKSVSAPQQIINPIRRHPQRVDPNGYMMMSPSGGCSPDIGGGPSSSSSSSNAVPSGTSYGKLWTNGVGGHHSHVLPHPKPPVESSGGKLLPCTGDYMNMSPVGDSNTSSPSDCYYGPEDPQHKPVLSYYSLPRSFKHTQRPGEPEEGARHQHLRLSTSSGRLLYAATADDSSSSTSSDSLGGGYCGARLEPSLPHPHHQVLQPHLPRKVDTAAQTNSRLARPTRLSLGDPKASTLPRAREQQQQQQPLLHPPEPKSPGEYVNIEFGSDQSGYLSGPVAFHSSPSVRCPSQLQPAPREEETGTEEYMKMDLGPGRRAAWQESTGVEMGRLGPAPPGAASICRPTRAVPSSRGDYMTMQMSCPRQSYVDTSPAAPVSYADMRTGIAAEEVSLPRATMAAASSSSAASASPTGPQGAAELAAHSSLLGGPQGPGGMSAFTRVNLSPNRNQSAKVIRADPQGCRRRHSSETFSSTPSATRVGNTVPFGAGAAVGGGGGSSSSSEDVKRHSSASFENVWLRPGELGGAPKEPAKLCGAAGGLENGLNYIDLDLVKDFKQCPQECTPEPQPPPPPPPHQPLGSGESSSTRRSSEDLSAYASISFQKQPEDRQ
Method: FIGS. 3(A-M) illustrate: (A, B) Mapping peptides (P3, SEQ ID NO: 1; P4 SEQ ID NO: 2; P5, SEQ ID NO: 3; P6, SEQ ID NO: 4) derived from mutant p110α that inhibit interaction between IRS1 and p110α E545K. The indicated peptides were added into cell lysates made from the p110α E545K 3×FLAG KI cells. Cell lysates were immunoprecipitated with beads conjugated with anti-FLAG antibodies and then blotted with anti-IRS1 antibodies. (C) Immunoblots of cell lysates made from the p110α E545K 3×FLAG KI cells. Cell lysates were immunoprecipitated with beads conjugated with anti-FLAG antibodies and then blotted with the indicated antibodies. (D) Immunoblots of cell lysate of Myc-tagged IRS1 plasmid, which co-transfected an ABD domain deletion construct of the FLAG-tagged p110α E545K mutant (ΔABD), incubated with the indicated amount of stapled p110α mutant peptides, and then immunoprecipitated with anti-FLAG antibodies and blotted with the indicated antibodies. (J, K) Immunoblot and graph of purified recombinant p110α E545K mutant proteins mixed with the indicated components and quantified using an in vitro lipid kinase assay. (L, M) Immunoblots of the indicated cell lines serum-starved, stimulated with 1 μg/ml insulin for 30 min, and then treated with or without the indicated peptides. Cell lysates were blotted with the indicated antibodies. All error bars show mean±SEM. *p<0.05, **p<0.001, t test.
(§1) For Co-immunoprecipitation (Co-IP), cells were harvested, washed with PBS, and then lysed in IP buffer (50 mMTris [pH 7.4], 150 mMNaCl, 5 mMEDTA [pH 8.0], 0.5% NP40, 1 mM PMSF, complete Protease Inhibitor Cocktail tablet [Roche]; supplemented with phosphatase inhibitors [1 mM Na3VO4, 20 mM NaF, 0.1 mM b-glycerophosphate, 20 mM sodium pyrophosphate] when necessary). For immunoblotting (IB) of phospho-specific proteins, unless stated otherwise, cells were lysed in urea buffer (100 mM NaH2PO4, 10 mM Tris-HCl, 8 M Urea, 1 mM Na3VO4, 20 mM NaF, 0.1 mM β-glycerophosphate, 20 mM sodium pyrophosphate, supplemented with complete Protease Inhibitor Cocktail tablet [Roche], pH 8.0). Lysates were then cleared by centrifugation (14,000 rpm, 10 min) and protein concentration in supernatants was determined with a BCA protein assay kit (Pierce, Rockford, Ill.). Equal amounts of total protein were used for IP or IB.
For in vitro peptide competition assay, the p110α mutant-FLAG-tagged cells were grown to 90% confluency, serum-starved overnight, and lysed as described previously. Peptides were then added to the cell lysates, incubated for 30 min at 4° C. and followed by immunoprecipitation assay.

[2] = biological target: T2, IRS1-p110α E545K interaction in DLD1 cells (Homo sapiens, UniProt P35568); test: Co-IP after peptide added to culture medium of p110α E545K 3×FLAG KI DLD1 cells; format: cell-based; set-up: dose or concentration left out as unconfirmed; conditions: peptide added to cell culture medium for 16 hr
T2 construct: endogenous in cells; host or cells: DLD1 p110α E545K 3×FLAG knock-in cells (rAAV gene targeting of the endogenous allele)
T2 sequence (P35568 1-1242): T1 sequence (P35568 1-1242)
Method: FIG. 4(A-F) illustrate: (A) Schematic diagram of linear and stapled WT and mutant peptides derived from p110α (SEQ ID NOs: 5, 6, 7 and 8). (B) Immunoblots of cell lysates immunoprecipitated with beads conjugated with anti-FLAG antibodies and then blotted with the indicated antibodies. Linear or stapled WT and mutant peptide were added into culture medium of the p110α E545K 3×FLAG KI cells for 16 hr. (C) Immunoblots of cell lysates immunoprecipitated with anti-p110α antibodies and then blotted with the indicated antibodies. Vaco481 CRC cells were treated with the stapled mutant peptides at the indicated concentration. (D) Immunoblots of cell lysates blotted with the indicated antibodies. The indicated cell lines were treated with the stapled mutant peptide. (E) Immunoblots of cell lysates blotted with the indicated antibodies. The indicated cancer cell lines were treated or untreated with stapled WT or mutant peptide at […] for 2 hr. (F) Immunoblots of cell lysates were blotted with the indicated antibodies. The indicated cancer cell lines were treated with or without […] of stapled mutant peptide for 2 hr.
as §1

H2N-SEITKQEK-D^549-FLW-S^553-HRHYC-COOH [stapled mutant peptide]
inhibition of the interaction between p110α E545K and IRS1 [1]: almost completely disrupted
inhibition of the interaction between p110α E545K and IRS1 ([1]; listed as stapled polypeptide substantially homologous to the C-terminal α-helical motif o): disrupted
disruption of IRS1-p110α E545K interaction in DLD1 cells [2]: effectively disrupted

H2N-SEITEQEKD^549-FLW-S^553-HRHYC-COOH (SEITEQEK[S5]FLW[S5]HRHYC; staple 9-13; not fully specified (N-terminus, C-terminus); printed as H2N-SEITEQEKD549-FLW-S553-HRHYC-COOH; listed as Homo sapiens) [stapled WT peptide, stapled wild-type p110α counterpart of the stapled mutant peptide, used as control, reference compound]
inhibition of the interaction between p110α E545K and IRS1 [1]: did not inhibit
disruption of IRS1-p110α E545K interaction in DLD1 cells [2]: neither the linear mutant peptide nor the stapled WT peptide affected the interaction
